Test results as given in US20240317859A1 (FOUNDATION FOR BIOMEDICAL RESEARCH AND INNOVATION AT KOBE, published 2024).
Changes are numbered by the printed parent chain.

B1: mouse HM266 (antibody, mouse IgG2a, kappa, V domains shown)
VH: QVQLQQSGPELVKPGASVKMSCKASGYTFTSYYIQWVKQRPGQGLEWIGWIYPGDGSSKYNEKFKGKTTLTADKSSSTAYMLLSSLTSEDSGIYFCASYYGSSFDYWGQGTTLTVSS
VL: DIQMTQTTSSLSASLGDRVTISCRASQDISNYLNWYQQKPDGTVKFLIYYSSRLHSGVPSRFSGSGSGTDYSLTISNLEQEDIATYFCQQGSTLPFTFGGGTKLEIKR
notes: Mouse anti-human PD-1 monoclonal antibody (mouse IgG)
B2: HM624 (antibody, V domains shown)
VH: EVLLQQSGPELVQPGTSVKIFCKASGYTFTDYNIDWVKQSHGKSHEWIGDIDPNNGGTVYNQKFKGKATLTVDKSSTTAYMELRSLTSEDTAVYYCTRWRGAMDYWGRGTSVTVSS
VL: DIQMTQTTSSLSASLGDRVTISCRASQDVSNYLNWYQQKPDGTVKLLIYDTSKLHSGVPSRFSGSGSGTDYSLTIRDPDQEDIATYFCQQGHTLPWTFGGGTKLEIRR

Legend:
[1] = molecular target: T1, human PD-1 (wild-type), expressed on cells (human, UniProt Q15116 25-288); test: flow cytometry on PD-1-expressing cells
T1 construct: also called hPD-1; wild-type human PD-1
Description: The gene of human PD-1 (wild-type) or substituted human PD-1 in which regions 1 to 8 as shown in FIG. 2A were replaced with mouse sequences and a gene of fluorescent protein such as GFP were co-expressed in a cell line (such as DO11.10 T cell hybridoma or HEK293T) by means of a vector ligating the genes with IRES sequences. The expression level of PD-1 on this cell line is correlated with the expression level of fluorescent protein such as GFP. Anti-PD-1 antibody was bound to the PD-1/GFP expressing cells, and the bound antibody was detected with a secondary antibody labeled with a different fluorescent dye. Briefly, PD-1-expressing cells were seeded in V-shaped bottom 96-well plates at 1×10⁵ cells/well. To each cell pellet, 50 μl of anti-human PD-1 antibody adjusted to 5 μg/ml was added and mixed. The mixture was incubated at 4° C. for 15 minutes. After washing, BV421-labeled anti-mouse IgG antibody or BV421-labeled anti-human IgG antibody, each adjusted to 5 μg/ml, was added in 50 μl. The mixture was incubated at 4° C. for 15 minutes. […] The fluorescence intensity of the filtrate was measured with a flow cytometer. The thus obtained fluorescence intensity can be rephrased as the binding capacity of anti-human PD-1 antibody to human PD-1 (wild-type or substituted). […] Binding characteristics to R143A point mutant or substituted Mouse PD-1 (hu38-48) were also analyzed in the same manner.

[2] = molecular target: T2, substituted human PD-1, domain #6 replaced with the corresponding amino acid sequence of mouse PD-1 (human; mouse, UniProt Q15116 25-288); test: flow cytometry on cells expressing substituted human PD-1
T2 construct: Human limits of domain #6 (109-120) are printed; also called PD-1 if domain #6 is replaced
T2 chain: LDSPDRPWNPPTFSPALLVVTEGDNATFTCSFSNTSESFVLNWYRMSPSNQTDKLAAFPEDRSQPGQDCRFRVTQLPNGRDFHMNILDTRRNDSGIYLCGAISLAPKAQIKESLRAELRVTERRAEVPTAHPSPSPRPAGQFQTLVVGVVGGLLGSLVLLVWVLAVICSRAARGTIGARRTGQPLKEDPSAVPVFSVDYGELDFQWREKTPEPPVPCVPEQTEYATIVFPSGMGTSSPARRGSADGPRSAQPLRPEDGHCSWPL
Description: (§1) These sub-groups of antibodies are characterized by a common nature that they bind to domain #6 and domain #7, and are distinguished from known antibodies.
(§2) The gene of human PD-1 (wild-type) or substituted human PD-1 in which regions 1 to 8 as shown in FIG. 2A were replaced with mouse sequences and a gene of fluorescent protein such as GFP were co-expressed in a cell line (such as DO11.10 T cell hybridoma or HEK293T) by means of a vector ligating the genes with IRES sequences. The expression level of PD-1 on this cell line is correlated with the expression level of fluorescent protein such as GFP. Anti-PD-1 antibody was bound to the PD-1/GFP expressing cells, and the bound antibody was detected with a secondary antibody labeled with a different fluorescent dye. Briefly, PD-1-expressing cells were seeded in V-shaped bottom 96-well plates at 1×10⁵ cells/well. To each cell pellet, 50 μl of anti-human PD-1 antibody adjusted to 5 μg/ml was added and mixed. The mixture was incubated at 4° C. for 15 minutes. After washing, BV421-labeled anti-mouse IgG antibody or BV421-labeled anti-human IgG antibody, each adjusted to 5 μg/ml, was added in 50 μl. The mixture was incubated at 4° C. for 15 minutes. After washing, cells were suspended in 200 μl of buffer, and passed through a 70 μm filter. The fluorescence intensity of the filtrate was measured with a flow cytometer. The thus obtained fluorescence intensity can be rephrased as the binding capacity of anti-human PD-1 antibody to human PD-1 (wild-type or substituted). […] Binding characteristics to R143A point mutant or substituted Mouse PD-1 (hu38-48) were also analyzed in the same manner.

[3] = molecular target: T3, substituted human PD-1, domain #1 replaced with the corresponding amino acid sequence of mouse PD-1 (human; mouse, UniProt Q15116 25-288); test: as above
T3 construct: also called PD-1 when domain #1 is replaced
T3 chain: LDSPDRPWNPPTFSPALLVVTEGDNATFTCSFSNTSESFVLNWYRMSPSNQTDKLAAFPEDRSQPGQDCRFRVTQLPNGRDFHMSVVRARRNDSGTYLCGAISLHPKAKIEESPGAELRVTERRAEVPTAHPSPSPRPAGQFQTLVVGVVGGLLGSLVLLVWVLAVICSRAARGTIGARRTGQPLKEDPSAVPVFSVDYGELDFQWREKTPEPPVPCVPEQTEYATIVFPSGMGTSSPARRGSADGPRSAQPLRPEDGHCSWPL
Description: as §1, §2

[4] = molecular target: T4, substituted human PD-1, domain #7 replaced with the corresponding amino acid sequence of mouse PD-1 (human; mouse, UniProt Q15116 25-288); test: as above
T4 construct: Human limits of domain #7 (38-48) are printed; also called PD-1 if domain #7 is replaced
T4 chain: T3 chain with S14Y, L17W, V19T, T21S, D24A, H105A, K109Q, E111K, P114L, G115R
Description: as §1, §2

Row | Binder | binding result [1] | binding result [2] | binding result [3] | binding result [4]
1 | B1 | binds |  |  | 
2 | B2 |  | no binding (tested: 5 µg/ml) | no binding (tested: 5 µg/ml) | no binding (tested: 5 µg/ml)
